According to patent EP4725969A1 (Latticon (Suzhou) Biopharmaceuticals Co., Ltd., dated 2024):

target: T1, recombinant human HER2 extracellular domain protein (human, UniProt P04626 23-652); test: BLI, Protein A capture
T1 construct: range 23-652; Range is printed for the immunogen/panning protein; also called ErbB2; recombinant HER2 protein

Row | Binder | Kd [nM] | kon [M⁻¹ s⁻¹] | koff [s⁻¹]
1 | 2126-Hu-H43 (antibody, IgG1, V domains shown, IgG1/Cκ) VH: QVQLVQSGSELKKPGASVKVSCKASGYTFTDYSMHWVRQAPGQGLEWMGWINTETGEPTYADDFKGRFVFSLDTSTSTAYLQISSLKAEDTAVYFCVRVGRYDYAMDYWGQGTTVTVSS VL: DIQMTQSPSSLSASVGDRVTITCKASQDVYTAVAWYQQKPGKAPKLLINSASYRYTGVPSRFSGSGSGTDFTLTISSLQPEDFATYYCQQHYSTPPTFGGGTKVEIK | 7.2 | 107000 | –
2 | 2126-Hu-H44 (antibody, IgG1, V domains shown, IgG1/Cκ) VH: QVQLVQSGSELKKPGASVKVSCKASGYTFTDYSMHWVRQAPGQGLEWMGWINTETGEPTYADDFKGRFVFSLDTSVSTAYLQLSSLKAEDTAVYFCVRVGRYDYAMDYWGQGTTVTVSS VL: DIQMTQSPSSLSASVGDRVTITCKASQDVYTAVAWYQQKPGKAPKLLINSASYRYTGVPSRFSGSGSGTDFTLTISSLQPEDFATYYCQQHYSTPPTFGGGTKVEIK | 5.3 | 106000 | 0.000562
3 | 2126-Hu-H45 (antibody, IgG1, V domains shown, IgG1/Cκ) VH: QVQLVQSGSELKKPGASVKVSCKASGYTFTDYSMHWVRQAPGQGLEWMGWINTETGEPTYADDFKGRFVFSLDTSVSTAYLQMSSLKAEDTAVYFCVRVGRYDYAMDYWGQGTTVTVSS VL: DIQMTQSPSSLSASVGDRVTITCKASQDVYTAVAWYQQKPGKAPKLLINSASYRYTGVPSRFSGSGSGTDFTLTISSLQPEDFATYYCQQHYSTPPTFGGGTKVEIK | 5.76 | 104000 | 0.000598
4 | 2126-Hu-H46 (antibody, IgG1, V domains shown, IgG1/Cκ) VH: QVQLVQSGSELKKPGASVKVSCKASGYTFTDYSMHWVRQAPGQGLEWMGWINTETGEPTYADDFKGRFVFSLDTSVSTAYLQISSLKAEDTAVYYCVRVGRYDYAMDYWGQGTTVTVSS VL: DIQMTQSPSSLSASVGDRVTITCKASQDVYTAVAWYQQKPGKAPKLLINSASYRYTGVPSRFSGSGSGTDFTLTISSLQPEDFATYYCQQHYSTPPTFGGGTKVEIK | 5.7 | 105000 | 0.000597
5 | 2126-Hu-H47 (antibody, IgG1, name in Kabat numbering, V domains shown, IgG1/Cκ) VH: QVQLVQSGSELKKPGASVKVSCKASGYTFTDYSMHWVRQAPGQGLEWMGWINTETGEPTYADDFKGRFVFSLDTSVSTAYLQISSLKAEDTAVYFCVRVGFYDYAMDYWGQGTTVTVSS VL: DIQMTQSPSSLSASVGDRVTITCKASQDVYTAVAWYQQKPGKAPKLLINSASYRYTGVPSRFSGSGSGTDFTLTISSLQPEDFATYYCQQHYSTPPTFGGGTKVEIK | 17.8 | 204000 | 0.00362
6 | 2126-Hu-H48 (antibody, IgG1, name in Kabat numbering, V domains shown, IgG1/Cκ) VH: QVQLVQSGSELKKPGASVKVSCKASGYTFTDYSMHWVRQAPGQGLEWMGWINTETGEPTYADDFKGRFVFSLDTSVSTAYLQISSLKAEDTAVYFCVRVGKYDYAMDYWGQGTTVTVSS VL: DIQMTQSPSSLSASVGDRVTITCKASQDVYTAVAWYQQKPGKAPKLLINSASYRYTGVPSRFSGSGSGTDFTLTISSLQPEDFATYYCQQHYSTPPTFGGGTKVEIK | 34.1 | 115000 | 0.00392
7 | 2126-Hu-H49 (antibody, IgG1, name in Kabat numbering, V domains shown, IgG1/Cκ) VH: QVQLVQSGSELKKPGASVKVSCKASGYTFTDYSMHWVRQAPGQGLEWMGWINTETGEPTYADDFKGRFVFSLDTSVSTAYLQISSLKAEDTAVYFCVRVGNYDYAMDYWGQGTTVTVSS VL: DIQMTQSPSSLSASVGDRVTITCKASQDVYTAVAWYQQKPGKAPKLLINSASYRYTGVPSRFSGSGSGTDFTLTISSLQPEDFATYYCQQHYSTPPTFGGGTKVEIK | 35.9 | 149000 | 0.00533
8 | 2126-Hu-H50 (antibody, IgG1, V domains shown, IgG1/Cκ) VH: QVQLVQSGSELKKPGASVKVSCKASGYTFTDYSMHWVRQAPGQGLEWMGWINTETGEPTYADDFKGRFVFSLDTSVSTAYLQISSLKAEDTAVYFCVRVGYYDYAMDYWGQGTTVTVSS VL: DIQMTQSPSSLSASVGDRVTITCKASQDVYTAVAWYQQKPGKAPKLLINSASYRYTGVPSRFSGSGSGTDFTLTISSLQPEDFATYYCQQHYSTPPTFGGGTKVEIK | 8 | 113000 | 0.000902
9 | 2126-Hu-H51 (antibody, IgG1, name in Kabat numbering, V domains shown, IgG1/Cκ) VH: QVQLVQSGSELKKPGASVKVSCKASGYTFTDYSMHWVRQAPGQGLEWMGWINTETGEPTYADDFKGRFVFSLDTSVSTAYLQISSLKAEDTAVYFCVRVGRFDYAMDYWGQGTTVTVSS VL: DIQMTQSPSSLSASVGDRVTITCKASQDVYTAVAWYQQKPGKAPKLLINSASYRYTGVPSRFSGSGSGTDFTLTISSLQPEDFATYYCQQHYSTPPTFGGGTKVEIK | 23.8 | 103000 | 0.00244
10 | 2126-Hu-H52 (antibody, IgG1, name in Kabat numbering, V domains shown, IgG1/Cκ) VH: QVQLVQSGSELKKPGASVKVSCKASGYTFTDYSMHWVRQAPGQGLEWMGWINTETGEPTYADDFKGRFVFSLDTSVSTAYLQISSLKAEDTAVYFCVRVGRSDYAMDYWGQGTTVTVSS VL: DIQMTQSPSSLSASVGDRVTITCKASQDVYTAVAWYQQKPGKAPKLLINSASYRYTGVPSRFSGSGSGTDFTLTISSLQPEDFATYYCQQHYSTPPTFGGGTKVEIK | 19.3 | 152000 | 0.00292
11 | 2126-Hu-H53 (antibody, IgG1, name in Kabat numbering, V domains shown, IgG1/Cκ) VH: QVQLVQSGSELKKPGASVKVSCKASGYTFTDYSMHWVRQAPGQGLEWMGWINTETGEPTYADDFKGRFVFSLDTSVSTAYLQISSLKAEDTAVYFCVRVGRNDYAMDYWGQGTTVTVSS VL: DIQMTQSPSSLSASVGDRVTITCKASQDVYTAVAWYQQKPGKAPKLLINSASYRYTGVPSRFSGSGSGTDFTLTISSLQPEDFATYYCQQHYSTPPTFGGGTKVEIK | 46.9 | 101000 | 0.00475
12 | 2126-Hu-H54 (antibody, IgG1, V domains shown, IgG1/Cκ) VH: QVQLVQSGSELKKPGASVKVSCKASGYTFTDYSMHWVRQAPGQGLEWMGWINTETGEPTYADDFKGRFVFSLDTSVSTAYLQISSLKAEDTAVYFCVRVGRGDYAMDYWGQGTTVTVSS VL: DIQMTQSPSSLSASVGDRVTITCKASQDVYTAVAWYQQKPGKAPKLLINSASYRYTGVPSRFSGSGSGTDFTLTISSLQPEDFATYYCQQHYSTPPTFGGGTKVEIK | 7.96 | 118000 | 0.000936
13 | 2126-Hu-H55 (antibody, IgG1, name in Kabat numbering, V domains shown, IgG1/Cκ) VH: QVQLVQSGSELKKPGASVKVSCKASGYTFTDYSMHWVRQAPGQGLEWMGWINTETGEPTYADDFKGRFVFSLDTSVSTAYLQISSLKAEDTAVYFCVRVGRYAYAMDYWGQGTTVTVSS VL: DIQMTQSPSSLSASVGDRVTITCKASQDVYTAVAWYQQKPGKAPKLLINSASYRYTGVPSRFSGSGSGTDFTLTISSLQPEDFATYYCQQHYSTPPTFGGGTKVEIK | 33.7 | 134000 | 0.00452
14 | 2126-Hu-H56 (antibody, IgG1, name in Kabat numbering, V domains shown, IgG1/Cκ) VH: QVQLVQSGSELKKPGASVKVSCKASGYTFTDYSMHWVRQAPGQGLEWMGWINTETGEPTYADDFKGRFVFSLDTSVSTAYLQISSLKAEDTAVYFCVRVGRYEYAMDYWGQGTTVTVSS VL: DIQMTQSPSSLSASVGDRVTITCKASQDVYTAVAWYQQKPGKAPKLLINSASYRYTGVPSRFSGSGSGTDFTLTISSLQPEDFATYYCQQHYSTPPTFGGGTKVEIK | 36.2 | 131000 | 0.00476
15 | 2126-Hu-H57 (antibody, IgG1, name in Kabat numbering, V domains shown, IgG1/Cκ) VH: QVQLVQSGSELKKPGASVKVSCKASGYTFTDYSMHWVRQAPGQGLEWMGWINTETGEPTYADDFKGRFVFSLDTSVSTAYLQISSLKAEDTAVYFCVRVGRYGYAMDYWGQGTTVTVSS VL: DIQMTQSPSSLSASVGDRVTITCKASQDVYTAVAWYQQKPGKAPKLLINSASYRYTGVPSRFSGSGSGTDFTLTISSLQPEDFATYYCQQHYSTPPTFGGGTKVEIK | 14.5 | 150000 | 0.00217
16 | 2126-Hu-H58 (antibody, IgG1, name in Kabat numbering, V domains shown, IgG1/Cκ) VH: QVQLVQSGSELKKPGASVKVSCKASGYTFTDYSMHWVRQAPGQGLEWMGWINTETGEPTYADDFKGRFVFSLDTSVSTAYLQISSLKAEDTAVYFCVRVGRYQYAMDYWGQGTTVTVSS VL: DIQMTQSPSSLSASVGDRVTITCKASQDVYTAVAWYQQKPGKAPKLLINSASYRYTGVPSRFSGSGSGTDFTLTISSLQPEDFATYYCQQHYSTPPTFGGGTKVEIK | 26.3 | 155000 | 0.00409
17 | 2126-Hu-H59 (antibody, IgG1, V domains shown, IgG1/Cκ) VH: QVQLVQSGSELKKPGASVKVSCKASGYTFTDYSMHWVRQAPGQGLEWMGWINTETGEPTYADDFKGRFVFSLDTSVSTAYLQISSLKAEDTAVYFCVRVGRYSYAMDYWGQGTTVTVSS VL: DIQMTQSPSSLSASVGDRVTITCKASQDVYTAVAWYQQKPGKAPKLLINSASYRYTGVPSRFSGSGSGTDFTLTISSLQPEDFATYYCQQHYSTPPTFGGGTKVEIK | 25.3 | 113000 | 0.00287
18 | 2126-Hu-H60 (antibody, IgG1, name in Kabat numbering, V domains shown, IgG1/Cκ) VH: QVQLVQSGSELKKPGASVKVSCKASGYTFTDYSMHWVRQAPGQGLEWMGWINTETGEPTYADDFKGRFVFSLDTSVSTAYLQISSLKAEDTAVYFCVRVGRYYYAMDYWGQGTTVTVSS VL: DIQMTQSPSSLSASVGDRVTITCKASQDVYTAVAWYQQKPGKAPKLLINSASYRYTGVPSRFSGSGSGTDFTLTISSLQPEDFATYYCQQHYSTPPTFGGGTKVEIK | 23.8 | 152000 | 0.00361
19 | 2126-Hu-H61 (antibody, IgG1, V domains shown, IgG1/Cκ) VH: QVQLVQSGSELKKPGASVKVSCKASGYTFTDYSMHWVRQAPGQGLEWMGWINTETGEPTYADDFKGRFVFSLDTSVSTAYLQISSLKAEDTAVYFCVRVGRYDYAFDYWGQGTTVTVSS VL: DIQMTQSPSSLSASVGDRVTITCKASQDVYTAVAWYQQKPGKAPKLLINSASYRYTGVPSRFSGSGSGTDFTLTISSLQPEDFATYYCQQHYSTPPTFGGGTKVEIK | 22 | 91400 | 0.00201
20 | 2126-Hu-L01 (antibody, IgG1, V domains shown, IgG1/Cκ) VH: QVQLVQSGSELKKPGASVKVSCKASGYTFTDYSMHWVRQAPGQGLEWMGWINTETGEPTYADDFKGRFVFSLDTSVSTAYLQISSLKAEDTAVYFCVRVGRYDYAMDYWGQGTTVTVSS VL: DIQMTQSPSSLSASVGDRVTITCKASQSVYTAVAWYQQKPGKAPKLLINSASYRYTGVPSRFSGSGSGTDFTLTISSLQPEDFATYYCQQHYSTPPTFGGGTKVEIK | 17.5 | 112000 | 0.00195
